Residue numbers refer to the chain shown, from its start. Numbers in names are those of the source.
B1: transglutaminase derived from Streptoverticillium mobaraense (MTG), wild type, P81453 77-407 (enzyme)
chain: DSDDRVTPPAEPLDRMPDPYRPSYGRAETVVNNYIRKWQQVYSHRDGRKQQMTEEQREWLSYGCVGVTWVNSGQYPTNRLAFASFDEDRFKNELKNGRPRSGETRAEFEGRVAKESFDEEKGFQRAREVASVMNRALENAHDESAYLDNLKKELANGNDALRNEDARSPFYSALRNTPSFKERNGGNHDPSRMKAVIYSKHFWSGQDRSSSADKRKYGDPDAFRPAPGTGLVDMSRDRNIPRSPTSPGEGFVNFDYGWFGAQTEADADKTVWTHGNHYHAPNGSLGAMHVYESKFRNWSEGYSDFDRGAYVITFIPKSWNTAPDKVKQGWP
B2: Ser-type MTG (mutant in which Asp1 has been removed, starts with Ser2), P81453 78-407 (enzyme)
chain: SDDRVTPPAEPLDRMPDPYRPSYGRAETVVNNYIRKWQQVYSHRDGRKQQMTEEQREWLSYGCVGVTWVNSGQYPTNRLAFASFDEDRFKNELKNGRPRSGETRAEFEGRVAKESFDEEKGFQRAREVASVMNRALENAHDESAYLDNLKKELANGNDALRNEDARSPFYSALRNTPSFKERNGGNHDPSRMKAVIYSKHFWSGQDRSSSADKRKYGDPDAFRPAPGTGLVDMSRDRNIPRSPTSPGEGFVNFDYGWFGAQTEADADKTVWTHGNHYHAPNGSLGAMHVYESKFRNWSEGYSDFDRGAYVITFIPKSWNTAPDKVKQGWP
B3: S2Y mutant MTG (Ser2 replaced with Tyr, in Met type MTG), P81453 79-407 (enzyme)
chain: MDYDDRVTPPAEPLDRMPDPYRPSYGRAETVVNNYIRKWQQVYSHRDGRKQQMTEEQREWLSYGCVGVTWVNSGQYPTNRLAFASFDEDRFKNELKNGRPRSGETRAEFEGRVAKESFDEEKGFQRAREVASVMNRALENAHDESAYLDNLKKELANGNDALRNEDARSPFYSALRNTPSFKERNGGNHDPSRMKAVIYSKHFWSGQDRSSSADKRKYGDPDAFRPAPGTGLVDMSRDRNIPRSPTSPGEGFVNFDYGWFGAQTEADADKTVWTHGNHYHAPNGSLGAMHVYESKFRNWSEGYSDFDRGAYVITFIPKSWNTAPDKVKQGWP
B4: S2R mutant MTG (Ser2 replaced with Arg, in Met type MTG), P81453 79-407 (enzyme)
chain: B3 chain with Y3R
B5: S2D mutant MTG (Ser2 replaced with Asp, in Met type MTG), P81453 79-407 (enzyme)
chain: B3 chain with Y3D

biological target: casein; test: cell-based or functional assay

| Binder | time required for the gelation of casein |
| --- | --- |
| B1 | 90 min |
| B2 | 85 min |
| B3 | 100 min |
| B4 | 85 min |
| B5 | 95 min |
